Test results from US20170008975A1, “Anti-Tissue Inhibitor of Metalloproteinase-4 (Timp-4) Antibodies and Methods of Use Thereof” (LANKENAU INSTITUTE FOR MEDICAL RESEARCH, priority 2014, published 2017).
Entries after “also recorded” stand apart in the source; their conditions may differ.

T1: CD63 (Homo sapiens, UniProt P08962)
T1 construct: endogenous in cells; host or cells: MDA-MB-468
T1 sequence (P08962 1-238): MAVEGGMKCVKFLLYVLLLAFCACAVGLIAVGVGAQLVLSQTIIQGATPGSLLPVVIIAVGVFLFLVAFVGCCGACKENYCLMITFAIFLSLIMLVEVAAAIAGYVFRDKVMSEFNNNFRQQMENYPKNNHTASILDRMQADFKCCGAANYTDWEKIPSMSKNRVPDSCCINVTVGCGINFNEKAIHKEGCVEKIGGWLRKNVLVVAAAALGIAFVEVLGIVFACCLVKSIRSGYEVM

B1: TIMP-4: tissue inhibitor of metalloproteinase-4 protein (R&D Systems, Inc), added to media or given in slow-release pellets (protein, UniProt Q99727 30-224, looked up)
Metalloproteinase inhibitor 4: CSCAPAHPQQHICHSALVIRAKISSEKVVPASADPADTEKMLRYEIKQIKMFKGFEKVKDVQYIYTPFDSSLCGVKLEANSQKQYLLTGQVLSDGKVFIHLCNYIEPWEDLSLVQRESLNHHYHLNCGCQITTCYTVPCTISAPNECLWTDWLLERKLYGYQAQHYVCMKHVDGTCSWYRGHLPLRKEFVDIVQP

What was measured:
AKT = assay: Western blotting of AKT activation in breast cancer cell cultures; format: cell-based
From the text: TIMP-4 appears to induce PI3K/AKT signaling, a critically important cancer cell pathway (Cantley, L. C. (2002) Science, 296:1655-7; Lopez-Knowles et al. (2010) Int. J. Cancer, 126:1121-31), through binding to the tetraspanin CD63 (Jung et al. (2006) EMBO J., 25:3934-42) (FIG. 3). […] Prior to clinical use of Her-2 targeting therapy (Herceptin®), breast cancers that were positive for Her-2 were, like TNBCs, associated with fast growth rate, early recurrence and distant disease resulting in a prognosis of poor survival (Hsieh et al. (2007) Br. J. Cancer, 97:453-7).

MDA-MB-468 cells [1] = assay: Clonogenic growth assay after irradiation; format: cell-based, human; settings: elevated TIMP-4 conditions, N=3
Experimental: (§1) MDA-MB-468 cell were compared to the CD63 negative SK-Br-3 cells using a modified Boyden chamber to assess invasion in absence (Ctrl) and presence of 2nM TIMP-4 (N=6). […] Clonogenic growth assay (Ayene et al. (2000) Int. J. Radiat. Biol., 76:1523-1531) was used to determine the survival advantage for MDA-MB-468 cells under elevtedTIMP-4 conditions after irradiation (N=3). […] This effect can be prevented by pre-treating the cells with LY294002. […] Further, cells cultured in normal medium began to detach and die as they reached contact inhibition (day 10), whereas cells in TIMP-4-supplemented media continued to survive and grow. Growth augmented by TIMP-4 could be blocked by the addition of the TIMP-4 mAb of the instant invention. Briefly, TIMP-4 mAbs were obtained by delivering a purified glutathione-S-transferase (GST) chimeric protein comprising the human full-length 224 amino acid TIMP-4 (GenBank Accession No. NM_003256.2).

MDA-MB-468 cell = assay: Modified Boyden chamber invasion, MDA-MB-468; format: cell-based, human; settings: 2nM TIMP-4 for 24 hours, N=6
Experimental: as §1

[2] = tested on: triple-negative human breast cancer cell-line MDA-MB-468; assay: Growth of MDA-MB-468 in culture with or without 2 nM TIMP-4; format: cell-based; settings: normal media supplemented with 2 nM TIMP-4
Experimental: as §1

[3] = tested on: CD63 negative SK-Br-3 cells; assay: Modified Boyden chamber invasion, SK-Br-3; format: cell-based, human; settings: 2nM TIMP-4 for 24 hours, N=6
Experimental: as §1

MDA-MB-468 cells [4] = assay: MDA-MB-468 orthotopic xenograft in mammary fat pad of nude mice with TIMP-4 or placebo slow-release pellets; format: in vivo; settings: TIMP-4 slow-release pellets implanted two weeks before cells
Experimental: FIGS. 7A and B show the effect of modulating TIMP-4 levels in a pilot animal study. Slow-release pellets were used to elevate the TIMP-4 (FIG. 7A) levels in the mammary fatpad (mfp) prior to implanting human TNBC cells. Placebo pellets (FIG. 7B) were used for control conditions. Once tumors were established, twice weekly doses of the anti-TIMP-4 or iso-type control mAb were administered during a two-week period (i.e. in total four treatments). Animals were followed for an additional two weeks post-treatment.
Inguinal mammary fat pads in nude mice were implanted with slow-release pellets (Innovative Research of America, Fla.) containing TIMP-4 to elevate its levels. Two weeks later, MDA-MB-468 cells were mixed with Matrigel™ (LDEV and phenol red free, BD Biosciences) and injected at the same site as an orthotopic xenograft. […] Tumor-bearing mice from both the groups shown were then randomly divided in half and treated by i.p. injection with 1 mg IgG of TIMP-4 mAb (clone 18:4-7) or a matched isotype control IgG2bk (BioXCell, N.H.), in sterile azide-free solution, administered twice weekly for 2 weeks. […] The antibody had no effect on animals without elevated TIMP-4 (FIG. 7B).

CD63 = target: T1, CD63; assay: Immunoprecipitation and immunofluorescence staining for CD63 binding; settings: MDA-MB-468, 2nM TIMP-4
From the text: Human breast cancer cell-lines expressing the tetraspanin CD63 (Chirco et al. (2006) Cancer Met. Rev., 25:99-113), as determined by FACS analysis, include MDA-MB-468.

binding to CD63 (CD63) | Molecule | activation of AKT (pAkt Ser473) (AKT) | survival of MDA-MB-468 cells after irradiation (MDA-MB-468 cells [1]) | invasiveness of MDA-MB-468 (MDA-MB-468 cell) | growth rate of MDA-MB-468 [2] | invasiveness of SK-Br-3 [3] | tumor size and growth rate with TIMP-4 pellets versus placebo pellets (MDA-MB-468 cells [4])
 | TIMP-1: member of the mammalian TIMP family, secreted circulating protein | can activate AKT |  |  |  |  | 
functional binding partner | B1 | can activate AKT; also recorded: sufficient to activate the PI3K/AKT pathway | increased survival | increased the invasiveness | increased growth rate; also recorded: relatively faster growth rate | did not increase the invasiveness | Differences in tumor size and growth rate
